{"source": "patent US20160289340A1", "about": "(published 2016)", "binders": {"B1": {"name": "3rd scFv phage clone of humanized MC48 variant (scFv)", "scFv": "QVQLQESGPGLVKPSETLSLTCTVSGFSLTSYGVSWIRQPPGKGLEWIGVIWGEGSTNYHSVLISRLTISKDNSKSQVFLKLNSLQTDDTATYYCAMTGTAYWGQGTLVTVSSGGGGSGGGGSGGGGSQIVLTQSPAIMSASPGEKVTMTCSASSSVSYMHWYQQKPGLAPRLLIYDTSKLSSGVPGRFSGSGSGTSYSLTISRLEAEDAATYYCHQWSSSPHTFGGGTKVEIKR", "notes": "also called 3rd humanized MC48 scFv phage; hMC48 (3rd)"}, "B2": {"name": "4th scFv phage clone of humanized MC48 variant (scFv)", "scFv": "QVQLKESGPGLVAPSQSLSITCTVSGFSLTSYGVSWIRQPPGKGLEWIGVIWGEGSTNYHSVLISRLTISKDNSKSQVFLKLNSLQTDDTATYYCAMTGTAYWGQGTLVTVSSGGGGSGGGGSGGGGSQIVLTQSPAIMSASPGEKVTMTCSASSSVSYMHWYQQKSGTSPKRWIYDTSKLSSGVPGRFSGSGSGTSYSLTISRLEAEDAATYYCHQWSSSPHTFGGGTKVEIKR", "notes": "also called 4th humanized MC48 scFv phage; hMC48 (4th)"}, "B3": {"name": "3rd humanized MC41 IgG (antibody, V domains shown)", "VH": "QVQLKESGPGLVAPSKTLSLTCTVSGFSLSSQGVYWIRQPPGKGLEWIGAIWAGGSTNYNSALMSRLSISKDNSKSQVFLKMNSLQTDDTAMYYCARVDGYRGYNMDYWGQGTSVTVSS", "VL": "ENVLTQSPAIMSATPGEKVTMTCSASSSVSYMHWYQQKSSTSPKLWIYDTSKLASGVPGRFSGSGSGNSYTLTISSMEAEDVATYYCFQGSGYPLTFGAGTKLEIKR", "notes": "also called humanized 3rd MC41"}, "B4": {"name": "2nd humanized MC41 IgG (antibody, V domains shown)", "VH": "QVQLKESGPGLVAPSKTLSLTCTVSGFSLSSQGVYWIRQPPGKGLEWIGAIWAGGSTNYNSALMSRLSISKDNSKSQVFLKMNSLQTDDTAMYYCARVDGYRGYNMDYWGQGTLVTVSS", "VL": "ENVLTQSPAIMSATPGEKVTMTCSASSSVSYLHWYQQKSSTSPKLWIYDTSKLASGVPGRFSGSGSGNSYTLTISSMEAEDVATYYCFQGSGYPLTFGAGTKLEIKR", "notes": "also called hMC41; humanized 2nd MC41"}, "B5": {"name": "chimeric MC41 (chMC41) (antibody, V domains shown)", "VH": "QVQLKESGPGLVAPSKSLSITCTVSGFSLSSQGVYWVRQPPGKGLEWLGAIWAGGSTNYNSALMSRLSISKDNSKSQVFLKMNSLQTDDTAMYYCARVDGYRGYNMDYWGQGTSVTVSS", "VL": "ENVLTQSPAIMSASPGEKVTMTCSASSSVSYMHWYQQKSSTSPKLWIYDTSKLASGVPGRFSGSGSGNSYSLTISSMEAEDVATYYCFQGSGYPLTFGAGTKLELKR", "notes": "Intact chimeric IgG of MC41"}}, "key": {"BSA control protein [1]": {"target": "T1, BSA control protein (bovine, UniProt P02769 25-607)", "T1 construct": "Unconjugated BSA used as negative control coating next to SSEA-4-BSA glycoconjugate; also called bovine serum albumin", "T1 sequence (P02769 25-607 limits assumed)": "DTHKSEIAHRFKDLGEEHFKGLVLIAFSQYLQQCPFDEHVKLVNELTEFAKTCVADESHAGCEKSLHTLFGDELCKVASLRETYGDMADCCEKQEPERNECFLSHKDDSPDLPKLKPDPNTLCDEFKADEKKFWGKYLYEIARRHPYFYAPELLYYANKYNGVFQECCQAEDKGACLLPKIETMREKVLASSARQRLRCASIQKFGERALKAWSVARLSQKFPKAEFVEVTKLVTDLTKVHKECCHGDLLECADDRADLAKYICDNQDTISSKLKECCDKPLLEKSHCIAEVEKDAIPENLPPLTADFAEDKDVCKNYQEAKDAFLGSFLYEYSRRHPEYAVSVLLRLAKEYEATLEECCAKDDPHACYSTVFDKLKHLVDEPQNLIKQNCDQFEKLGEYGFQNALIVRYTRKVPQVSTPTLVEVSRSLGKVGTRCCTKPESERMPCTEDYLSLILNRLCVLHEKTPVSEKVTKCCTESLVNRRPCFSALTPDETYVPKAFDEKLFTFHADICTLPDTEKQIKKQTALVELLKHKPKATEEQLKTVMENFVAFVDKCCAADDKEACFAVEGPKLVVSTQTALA", "assay": "phage ELISA, serially diluted phage on coated BSA"}, "BSA control protein [2]": {"target": "T1, BSA control protein", "assay": "ELISA, serially diluted IgG on coated BSA, anti-human IgG-HRP"}}}
{"binder": "B1", "values": [{"measurement": "binding result", "setting": "BSA control protein [1]", "result": "no binding"}]}
{"binder": "B2", "values": [{"measurement": "binding result", "setting": "BSA control protein [1]", "result": "no binding"}]}
{"binder": "B3", "values": [{"measurement": "binding result", "setting": "BSA control protein [2]", "result": "no binding"}]}
{"binder": "B4", "values": [{"measurement": "binding result", "setting": "BSA control protein [2]", "result": "no binding"}]}
{"binder": "B5", "values": [{"measurement": "binding result", "setting": "BSA control protein [2]", "result": "no binding"}]}
